To fix the notation:
B1: Murine anti-46C4 (antibody, V domains shown)
VH: EVHLQQSVAELVRPGASVKLSCTASGFNIKNTYMHWVKQRPEQGLEWIGRIDPANGNTKYAPKFQGKATITADTSSNTAYLQLSSLTSEDTAIYYCASDFDYWGQGTTLTVSS
VL: DVLMTQTPLSLPVSLGDQVSISCRSSQSIVNSNGNTHLEWYLQKPGQSPKVLIYKVSKRFSGVPDRFSGSGSGTDFTLKISRVEAEDLGVYYCFQGSHVPYTFGGGTKLEIK
notes: Mouse hybridoma antibody; also called 46C4A6
B2: Murine anti-56F10 (antibody, V domains shown)
VH: EVQLQQSGAELVKPGASVKLSCTASGFNIKDFYMHWVKQRTEQGLEWIGRIDPEDGETKYAPKFQGKATITADTSSNTAYLQLSSLTSEDTAVYYCGCRTGGFAYWGQGTLVTVSA
VL: QIVLTQSPAIMSASPGEKVTMTCSASSSVSYLYWYQQKPGSSPSLLIYDTSNLASGVPVRFSGSGSGTSYSLTISRMEAEDAATYYCQQWSRNPWTFGGGTKLEIK
notes: Mouse hybridoma antibody; also called 56F10G2
B3: Murine anti-59G3 (antibody, V domains shown)
VH: DVQLQESGPGLVKPSQSLSLTCSVTGYSITSGYYWHWIRQFPENKLEWMGYISYDGSNIYNPSLKNRISITRDTSKNQFFLKLNSVTTEDTATYYCAINSDYALDYWGQGTSVTVSS
VL: B2 VL with L32M, S44R, R92S, N93Y, P94S, W95L, G99A, I105L
notes: Mouse hybridoma antibody; also called 59G3F12
B4: Murine anti-53D8 (antibody, V domains shown)
VH: QVQLQQSGAELARPGASVKMSCKASGYTFTSYTMHWVKQRPGQGLEWIGYINPSSGYTKYNQIFKDKATLTADKSSSTAYMQLSSLTSEDSAVYYCTRGGGRGFAYWGQGTLVTVSA
VL: DILMTQSPSSMSVSLGDTVSITCHASQDINSNIGWLQQKPGKSFKGLIYHGTNLEDGVPSRFSGSGSGADYSLTISSLESEDFADYYCVQYAQFPFTFGSGTKLEIK
notes: Mouse hybridoma antibody; also called 53D8H4
B5: Murine anti-64B11 (antibody, V domains shown)
VH: B2 VH with F32Y, S85N, T87P
VL: B4 VL with D28G, G46A, K103E
notes: Mouse hybridoma antibody; also called 64B11F2
B6: Murine anti-49G12 (antibody, V domains shown)
VH: EVQLLQSGAELVKPGASVKLSCTASGFNIKDYYMHWVKQRTEQGLEWIGRIDPEDGETKYAPKFQGKATMTADTSSNTAYLQLSSLTSEDTAVYYCASSAYYGRNYWGQGTTLTVSS
VL: QIVLTQSPAIMSASPGEKVTLTCSASSSLSSSYLYWYQQKPGSSPKLWIYSTSNLASGVPARFSGSGSGTSYSLTISSMEAEDAASYFCHQWSSYPYTFGGGTKLEIK
notes: Mouse hybridoma antibody; also called 49G12G5
B7: Murine anti-51G7 (antibody, V domains shown)
VH: B6 VH with L5Q, Y32F, M34I, G66D, M70I, T71I, A100S, R104N
VL: B6 VL with L29V, S32N, Y95F
notes: Mouse hybridoma antibody; also called 51G7C2
B8: Humanized antibody h75G7C6-9 (antibody, human IgG1, V domains shown)
VH: QVQLVQSGAEVKKPGASVKVSCKASGYTFTDYNMDWVRQAPGQGLEWIGDINPNNADTIYNQKFKGRVTLTVDTSTSTVYMELSSLRSEDTAVYYCARGDYDGYYPVYYAMDYWGQGTTVTVSS
VL: EIVLTQSPATLSLSPGERATLSCRASSSVSSSYLHWYQQKPGQAPRLLIYSTSNLAAGIPARFSGSGSGTDFTLTISSLEPEDFAVYYCQQYSGYPLTFGGGTKVEIK
notes: Human IgG1 constant region, human kappa constant region
B9: Humanized antibody h75G7C6-13 (antibody, human IgG1, V domains shown)
VH: B8 VH with R38K, T74K
VL: B8 VL
notes: as for B8
B10: Chimeric antibody c75G7C6 (antibody, human IgG1, V domains shown)
VH: EVQLQQSGPELVKPGASVKIPCKASGYTFTDYNMDWVKQSHGKSLEWIGDINPNNGDTIYNQKFKGKATLTVDKSSSTAYMELRSLTSEDTAVYYCARGDYDGYYPVYYAMDYWGQGTSVTVSS
VL: ENVLTQSPAIMSASPGEKVTMTCRASSSVSSSYLHWYQQKSGASPKLWIFSTSNLAAGVPARFSGSGSGTSYSLTVSSVEAEDAATYYCQQYSGYPLTFGAGTKLELK
notes: also called chimeric antibody 75G7

Numbering of substitutions follows the chain as printed.

The first experiment addresses T1, wild-type human EGFR protein on the surface of cells (A431, HEB, U87MG) (human, UniProt P00533 25-1210).
T1 construct: whole, on cells; One molecule for all three cell lines; the cell line is named under assay; also called wild-type EGFR
The experiment in a line: FACS on A431 cells. As to the method:
(§1) The collected cells are suspended to 2×10⁶ cells/mL with an FACS buffer (HBSS+1% BSA, with the percentage being the mass percentage), added to a 96-well FACS reaction plate at 100 μL/well, then added with 100 μL/well of the purified EGFRvIII antibody (samples to be tested) obtained in example 2, and incubated on ice for 2 hours. The plate is centrifugally washed twice with the FACS buffer, added with 100 μL/well of a fluorescence (Alexa 488) labeled secondary antibody (purchased from Invitrogen), and then incubated on ice for 1 hour. The plate is centrifugally washed 3 times with the FACS buffer, added with 100 μL/well of a fixing solution [4% (v/v) paraformaldehyde] for suspending the cells, and centrifugally washed twice with the FACS buffer after 10 minutes. The cells are suspended in 100 μL of the FACS buffer, and the results are detected and analyzed by FACS (FACS Calibur, purchased from BD). Data analysis is performed by using the software (CellQuest) to obtain the mean fluorescence intensity (MFI) of the cells. Data is further analyzed by using the software (GraphPad Prism5) to perform data fitting and calculate EC50. […] A431 cells (human epidermal cell cancer cell lines) have a large amount of wild-type EGFR protein expressed on the surface thereof. […] U87MG cells (human glioma cell lines) have a small amount of wild-type EGFR protein expressed on the surface thereof, while HEB cells (human glioma cell lines) have a high level of wild-type EGFR protein expression on the surface thereof.
Consider B1, for which the binding result was “no binding”.
Still for that read-out and setting: next, B2: “no binding”.
Still for that read-out and setting: the entry for B3 is “no binding”; for B4 it is “no binding”; for B5 it is “no binding”.
On to B6, for which the binding result is on record as “no binding”.
As to B7, the binding result was “no binding”.

For another experiment, the target named is T2, human EGFRvIII protein on the surface of U87MG-hEGFRvIII cells (human, UniProt P00533 25-1210).
T2 construct: whole, on cells; Stably transfected U87MG cells; also called mutant EGFRvIII protein; U87MG-EGFRvIII
In words: FACS on U87MG-hEGFRvIII cells. As for the experimental part: as §1, with “The cells are washed twice with the HBSS buffer and are counted, and then the cells are diluted with the HBSS buffer to 2×10⁶ cells/ml, added with 1% goat serum blocking solution, with the percentage being the mass percentage, and incubated on ice for 30 minutes, and then centrifugally washed twice with the HBSS buffer. The collected” for “The collected”
Broadly, the EC50 is the concentration needed to bring the measured effect to its halfway point. A higher EC50 goes with weaker potency. B1 gave an EC50 of 13.3 nM.
B2 had an EC50 of 12.3 nM.
Same read-out and setting: the figure for B3 is 40.9 nM; for B4 it is 6.8 nM.
B5: a half-maximal effect (EC50) was put at 25.3 nM.
On the same count and under the same terms, the figure for B6 is 7.9 nM; for B7 it is 26.2 nM.

In the next experiment the target is T3, EGFR-his (purchased from Sino Biological) (UniProt P00533 25-645).
T3 construct: Bought protein; also called EGFR protein; not shown: his tag
In words: BLI (OctetRED), antibody on anti-human Fc (AHC) biosensor, EGFR-his in solution. The text has this:
(§2) BLI technology involves: detecting the interaction of the molecules fixed on the sensor with the molecules in the solution, which results in that the biofilm thickness is increased, and the interference spectrum curve is shifted along the direction of increased wavelength, wherein the phase shift of light waves can be detected by workstation in real time, and analyzed to quantitatively obtain the changes in the number of molecules on the sensor surface and related concentration and kinetic data.
As usually defined, the Kd is the constant that tells how readily two partners part at equilibrium. Read a low Kd as tighter binding. Broadly, the koff is a measure of how fast the partners let go of each other. A higher koff goes with fast dissociation. Usually kon stands for the rate constant with which the complex forms. Lower therefore signals slow association. Regarding B8, the Kd was found to be 215 nM, the koff was determined as 0.00435 s⁻¹ and the kon was 20200 M⁻¹ s⁻¹.
Taken in the same sequence, the figures for B9 were 211 nM, 0.00476 s⁻¹ and 22500 M⁻¹ s⁻¹.
As to B10, the Kd turned out to be 220 nM, the koff is 0.00362 s⁻¹ and the kon was 16500 M⁻¹ s⁻¹.

The next experiment has as its target T4, EGFRvIII-his (purchased from Sino Biological) (UniProt P00533 25-645).
T4 construct: Bought protein; also called EGFRvIII protein; not shown: his tag
In words: BLI (OctetRED), antibody on anti-human Fc (AHC) biosensor, EGFRvIII-his in solution.
Description: as §2
In the case of B8, the Kd is 1.77 nM, the koff stood at 0.000175 s⁻¹ and the kon came out at 98900 M⁻¹ s⁻¹.
Consider B9, for which the Kd stood at 1.45 nM, the koff stood at 0.000181 s⁻¹ and the kon stood at 125000 M⁻¹ s⁻¹.
Taken in the same sequence, the figures for B10 were 1.45 nM, 0.000132 s⁻¹ and 91400 M⁻¹ s⁻¹.

The record behind these values is US20210032351A1 (XDCEXPLORER SHANGHAI, published 2021).
